Assay results from PMC5491494, “Functional and dynamic polymerization of the ALS-linked protein TDP-43 antagonizes its pathologic aggregation” (Nature Communications, 2017).

Target: the molecule itself
Test: cross-linking; in situ 1 mM DSG on minced human brain tissue (cerebellum, motor cortex) or mouse organotypic brain slices (control or 0.25 mM arsenite for 2 h), 37 °C, 30 min, quenched with 20 mM Tris; nucleo-cytoplasmic fractionation; immunoblot

B1: wild-type superoxide dismutase 1 (SOD1), endogenous mouse (enzyme)
chain: not shown
notes: superoxide dismutase 1, mouse, endogenous in brain slices; source: endogenous, mouse brain slices
With B1 as the protein, how does the “stoichiometry N” value read?
The value was 2.
